{"source": "patent US20260201048A1", "about": "(NANJING BIOHENG BIOTECH, published 2026)", "key": {"[1]": {"target": "T1, Human IRP60 protein (Kactus) (human, UniProt Q9UGN4 18-178, limits assumed)", "T1 construct": "Commercial soluble protein used as the flow cytometry staining reagent; also called CD300a", "T1 sequence (looked up)": "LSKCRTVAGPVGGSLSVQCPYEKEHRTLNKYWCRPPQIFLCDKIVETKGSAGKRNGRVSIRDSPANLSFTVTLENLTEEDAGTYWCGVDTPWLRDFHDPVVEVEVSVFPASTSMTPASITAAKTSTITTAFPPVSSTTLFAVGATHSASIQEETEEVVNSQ", "assay": "flow cytometry; CAR19-60 T cells stained with soluble human IRP60 protein", "source_text": "Using a flow cytometry, the expression of anti-CD 19 scFv in CAR-T cells was detected with FITC goat anti-human Fab (Thermo Fisher), and the expression of anti-IRP60 scFv was detected with Human IRP60 protein (Kactus). It can be seen that all the CARs in the CAR-T cells prepared in this example can be effectively expressed (FIG. 12), and the immunosuppressive molecule in CAR19-60 T cells can also be effectively expressed (FIG. 13)."}, "[2]": {"target": "T2, Human SIRPa protein (Acro) (human, UniProt P78324 31-370, limits assumed)", "T2 construct": "Commercial soluble protein used as the flow cytometry staining reagent; also called SIRPα; signal regulatory protein a", "T2 sequence (P78324 31-370 limits assumed)": "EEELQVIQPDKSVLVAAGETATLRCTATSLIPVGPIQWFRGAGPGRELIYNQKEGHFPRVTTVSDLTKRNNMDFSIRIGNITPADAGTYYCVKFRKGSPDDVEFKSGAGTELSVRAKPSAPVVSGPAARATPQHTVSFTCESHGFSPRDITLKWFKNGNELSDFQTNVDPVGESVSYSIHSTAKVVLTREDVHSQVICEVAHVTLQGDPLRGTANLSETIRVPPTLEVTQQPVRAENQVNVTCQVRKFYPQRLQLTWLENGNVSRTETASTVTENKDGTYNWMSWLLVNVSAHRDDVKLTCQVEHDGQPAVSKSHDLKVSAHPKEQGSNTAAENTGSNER", "assay": "flow cytometry; CAR19-α T cells stained with soluble human SIRPa protein", "source_text": "Using a flow cytometry, the expression of anti-CD19 scFv in CAR-T cells was detected with FITC goat anti-human Fab (Thermo Fisher), and the expression of anti-SIRPa scFv was detected with Human SIRPa protein (Acro). It can be seen that all the CARs in the CAR-T cells prepared in this example can be effectively expressed (FIG. 7), and the immunosuppressive molecule in CAR19-α T cells can also be effectively expressed (FIG. 8)."}}}
{"binder": "immunosuppressive molecule targeting IRP60 (anti-IRP60 scFv, IgG4 hinge region, CD28 transmembrane region, CD28 co-stimulatory domain), expressed on CAR19-60 T … (scFv, Membrane-anchored scFv on B2M-knockout T cells that also express a CD19 CAR; also called anti-IRP60 antibody) EVQLQQSGAELVKPGASVKLSCKASGYTFTSYWMQWVKQRPGQGLEWIGEIDPSDSYTNYNQKFKGKATLTVDTSSSTTYMQLSSLTSEDSAVYYCARWGMAYGTSSYWYFDVWGTGTTVTVSSAGGGSGGGSGGGSDIQMTQTTSSLSASLGDRVTISCRASQDISNYLNWYQQKPDGTVKLLIYYTSRLHSGVPSRFSGSGSGTDYSLTISNLEQEDIATYFCQQGNTLPWTFGGGTKLEIKESKYGPPCPPCPFWVLVVVGGVLACYSLLVTVAFIIFWVRSKRSRLLHSDYMNMTPRRPGPTRKHYQPYAPPRDFAAYRS", "values": [{"measurement": "binding result", "setting": "[1]", "value": "binds"}]}
{"binder": "immunosuppressive molecule targeting SIRPa (anti-SIRPa scFv, IgG4 hinge region, CD28 transmembrane region, CD28 co-stimulatory domain), expressed on CAR19-α T … (scFv, Membrane-anchored scFv on B2M-knockout T cells that also express a CD19 CAR; also called anti-SIRPa antibody) EVQLVESGGGLVQPGGSLRLSCAASGFNISYYFIHWVRQAPGKGLEWVASVYSSFGYTYYADSVKGRFTISADTSKNTAYLQMNSLRAEDTAVYYCARFTFPGLFTGFFGAYLGSLDYWGQGTLVTVSSGGGSGGGSGGGSDIQMTQSPSSLSASVGDRVTITCRASQSVSSAVAWYQQKPGKAPKLLIYSASSLYSGVPSRFSGSRSGTDFTLTISSLQPEDFATYYCQQAVNWVGALVTFGQGTKVEIKRESKYGPPCPPCPFWVLVVVGGVLACYSLLVTVAFIIFWVRSKRSRLLHSDYMNMTPRRPGPTRKHYQPYAPPRDFAAYRS", "values": [{"measurement": "binding result", "setting": "[2]", "value": "binds"}]}
